Article PMC4447253 (mBio, 2015)

B1: TraR-His (GntR-type transcriptional repressor TraR of plasmid pSVH1) (natural protein, Streptomyces venezuelae (plasmid pSVH1), UniProt Q3LAJ7 1-252, looked up)
chain: MTSTQSEKRVTARSIADDLRGKIRSGQLLPGSVLPTTKALAEEHGVSSKTVSAGIDLLKLEGLVVGEQGGRRRVRADRPITWNLTRFERGARRDSAVMDDWSTAISEAGRTPEQHVSVSRETANSDIAGWLQVPVGDDVVKRVRMRTVDGRPFQLSTSYFPKHVAVGTLLEEPGDVAVPGGILSHIGHPQLRVRDEISVRMPSPEESQELALPPGTPVAQHVRVGYGETGPVRVMVTIAPGDRHTLVYELEV
B2: SpdB2-His (SpdB2 of plasmid pSVH1) (natural protein, Streptomyces venezuelae (plasmid pSVH1), UniProt Q3LAJ4 1-409, looked up)
chain: MSTYREEKRLDDQLRAEQKLRNEQLRAEQAREDRRLELEATQQRDAARAEEKRKDAEAKRRQEQAEKKARAAEQQAKKAAAAAKRAKLVRWLKANPATLFVGFVMVASIVPALLSQIGALTGATVAAPMAGLLAAMLEGGAWAITFMGKQAEDAGREPRKYRIGTWAVATVAAAVNFWHGLEAYGEHPWVAFVLGASSLFAIYIWDLKTHGSHGKTKEQKQAEKARRAHVSARRKHHPEIVEQAVKLQAALPYGVLDDESAFAAAWRIHTGAEPGLSAQLYATATEAVLQLGAAFELGDNVRDELLETGFKAARLNPFAELAQVPGSQAGLEENAPQGPASALRPDAPEGKSPEELEALLPDAVAAAAELVAEGRQISAHGLAKKLQIRRVDAALLRDRVIEQRRLHVA

Tests used:
[1] = target: the molecule itself; assay: cross-linking
[2] = target: the molecule itself; assay: native gel or EMSA

Protein	stoichiometry N [1]	binding result [2]
B1	2	–
B2	–	binds
